Experimental data as given in article PMC9352680, “A comprehensive thermodynamic model for RNA binding by the Saccharomyces cerevisiae Pumilio protein PUF4”.

T1: PUF4 RNA-binding domain (Saccharomyces cerevisiae, UniProt P25339 537-888)
T1 sequence: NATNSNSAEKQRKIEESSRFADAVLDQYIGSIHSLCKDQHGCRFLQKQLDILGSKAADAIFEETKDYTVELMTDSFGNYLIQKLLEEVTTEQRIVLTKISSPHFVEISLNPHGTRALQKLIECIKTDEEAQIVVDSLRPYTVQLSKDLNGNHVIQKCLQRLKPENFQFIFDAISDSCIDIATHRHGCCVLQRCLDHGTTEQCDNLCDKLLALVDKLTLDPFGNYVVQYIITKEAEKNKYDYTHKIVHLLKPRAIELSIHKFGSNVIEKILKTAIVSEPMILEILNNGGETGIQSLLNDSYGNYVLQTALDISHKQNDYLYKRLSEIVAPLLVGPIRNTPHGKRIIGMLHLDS

B1: Ic_S2_P3E.1_K3.1_C3.1_H3.1_A3.1_[T5G]_[A6C]_F3.1_[T7G]_[A8T]_T3.1 (ssRNA)
RNA: UUUGAUUAAUAUGAUAUCGUUCUUUCUUGUAGCGUUUCUUUCUCGAUAUCAUAUUAAUCUUU
B2: Ic_S2_P3E.1_K3.1_C3.1_H3.1_A3.1_[T5G]_[A6C]_F3.1_[T7C]_[A8T]_T3.1 (ssRNA)
RNA: UUUGAUUAAUAUGAUAUCGUUCUUUCUUGUAGCCUUUCUUUCUCGAUAUCAUAUUAAUCUUU
B3: Ic_S2_P3E.1_K3.1_C3.1_H3.1_A3.1_[T5C]_[A6G]_F3.1_[T7G]_[A8C]_T3.1 (ssRNA)
RNA: UUUGAUUAAUAUGAUAUCGUUCUUUCUUGUACGGCUUCUUUCUCGAUAUCAUAUUAAUCUUU
B4: Ic_S2_P3E.1_K3.1_C3.1_H3.1_A3.1_[T5C]_[A6T]_F3.1_[T7A]_[A8C]_T3.1 (ssRNA)
RNA: UUUGAUUAAUAUGAUAUCGUUCUUUCUUGUACUACUUCUUUCUCGAUAUCAUAUUAAUCUUU
B5: Ic_S2_P3E.1_K3.1_C3.1_H3.1_A3.1_[T5G]_[A6C]_F3.1_[T7C]_[A8C]_T3.1 (ssRNA)
RNA: UUUGAUUAAUAUGAUAUCGUUCUUUCUUGUAGCCCUUCUUUCUCGAUAUCAUAUUAAUCUUU
B6: Ic_S2_P3E.1_K3.1_C3.1_H3.1_A3.1_[T5C]_[A6T]_F3.1_[T7A]_[A8T]_T3.1 (ssRNA)
RNA: UUUGAUUAAUAUGAUAUCGUUCUUUCUUGUACUAUUUCUUUCUCGAUAUCAUAUUAAUCUUU
B7: Ic_S2_P3E.1_K3.1_C3.1_H3.1_A3.1_[T5C]_[A6C]_F3.1_[A8G]_T3.1 (ssRNA)
RNA: UUUGAUUAAUAUGAUAUCGUUCUUUCUUGUACCUGUUCUUUCUCGAUAUCAUAUUAAUCUUU
B8: Ic_S2_P3E.1_K3.1_C3.1_H3.1_A3.1_[T5G]_[A6T]_F3.1_[T7C]_[A8G]_T3.1 (ssRNA)
RNA: UUUGAUUAAUAUGAUAUCGUUCUUUCUUGUAGUCGUUCUUUCUCGAUAUCAUAUUAAUCUUU
B9: Ic_S2_P3E.1_K3.1_C3.1_H3.1_A3.1_[T5G]_[A6C]_F3.1_[A8C]_T3.1 (ssRNA)
RNA: UUUGAUUAAUAUGAUAUCGUUCUUUCUUGUAGCUCUUCUUUCUCGAUAUCAUAUUAAUCUUU
B10: Ic_S2_P3E.1_K3.1_C3.1_H3.1_A3.1_[T5C]_[A6G]_F3.1_[A8T]_T3.1 (ssRNA)
RNA: UUUGAUUAAUAUGAUAUCGUUCUUUCUUGUACGUUUUCUUUCUCGAUAUCAUAUUAAUCUUU
B11: Ic_S2_P3E.1_K3.1_C3.1_H3.1_A3.1_[T5C]_[A6T]_F3.1_[T7C]_[A8T]_T3.1 (ssRNA)
RNA: UUUGAUUAAUAUGAUAUCGUUCUUUCUUGUACUCUUUCUUUCUCGAUAUCAUAUUAAUCUUU
B12: Ic_S2_P3E.1_K3.1_C3.1_H3.1_A3.1_[T5G]_[A6T]_F3.1_[T7C]_[A8T]_T3.1 (ssRNA)
RNA: UUUGAUUAAUAUGAUAUCGUUCUUUCUUGUAGUCUUUCUUUCUCGAUAUCAUAUUAAUCUUU
B13: Ic_S2_P3E.1_K3.1_C3.1_H3.1_A3.1_[T5C]_[A6C]_F3.1_[T7C]_[A8T]_T3.1 (ssRNA)
RNA: UUUGAUUAAUAUGAUAUCGUUCUUUCUUGUACCCUUUCUUUCUCGAUAUCAUAUUAAUCUUU
B14: Ic_S2_P3E.1_K3.1_C3.1_H3.1_A3.1_[T5G]_[A6T]_F3.1_[T7G]_[A8C]_T3.1 (ssRNA)
RNA: UUUGAUUAAUAUGAUAUCGUUCUUUCUUGUAGUGCUUCUUUCUCGAUAUCAUAUUAAUCUUU
B15: Ic_S2_P3E.1_K3.1_C3.1_H3.1_A3.1_[T5C]_[A6C]_F3.1_[T7C]_[A8G]_T3.1 (ssRNA)
RNA: UUUGAUUAAUAUGAUAUCGUUCUUUCUUGUACCCGUUCUUUCUCGAUAUCAUAUUAAUCUUU
B16: Ic_S2_P3E.1_K3.1_C3.1_H3.1_A3.1_[T5C]_[A6T]_F3.1_[T7G]_[A8C]_T3.1 (ssRNA)
RNA: UUUGAUUAAUAUGAUAUCGUUCUUUCUUGUACUGCUUCUUUCUCGAUAUCAUAUUAAUCUUU
B17: Ic_S2_P3E.1_K3.1_C3.1_H3.1_A3.1_[T5G]_[A6T]_F3.1_[T7C]_T3.1 (ssRNA)
RNA: UUUGAUUAAUAUGAUAUCGUUCUUUCUUGUAGUCAUUCUUUCUCGAUAUCAUAUUAAUCUUU
B18: Ic_S2_P3E.1_K3.1_C3.1_H3.1_A3.1_[T5C]_[A6G]_F3.1_[T7C]_[A8C]_T3.1 (ssRNA)
RNA: UUUGAUUAAUAUGAUAUCGUUCUUUCUUGUACGCCUUCUUUCUCGAUAUCAUAUUAAUCUUU
B19: Ic_S2_P3E.1_K3.1_C3.1_H3.1_A3.1_[T5C]_[A6C]_F3.1_[T7G]_[A8T]_T3.1 (ssRNA)
RNA: UUUGAUUAAUAUGAUAUCGUUCUUUCUUGUACCGUUUCUUUCUCGAUAUCAUAUUAAUCUUU
B20: Ic_S2_P3E.1_K3.1_C3.1_H3.1_A3.1_[T5C]_[A6C]_F3.1_[T7A]_[A8T]_T3.1 (ssRNA)
RNA: UUUGAUUAAUAUGAUAUCGUUCUUUCUUGUACCAUUUCUUUCUCGAUAUCAUAUUAAUCUUU
B21: Ic_S2_P3E.1_K3.1_C3.1_H3.1_A3.1_[T5C]_[A6C]_F3.1_[T7A]_T3.1 (ssRNA)
RNA: UUUGAUUAAUAUGAUAUCGUUCUUUCUUGUACCAAUUCUUUCUCGAUAUCAUAUUAAUCUUU
B22: Ic_S2_P3E.1_K3.1_C3.1_H3.1_A3.1_[T5G]_[A6T]_F3.1_[T7G]_[A8T]_T3.1 (ssRNA)
RNA: UUUGAUUAAUAUGAUAUCGUUCUUUCUUGUAGUGUUUCUUUCUCGAUAUCAUAUUAAUCUUU
B23: Ic_S2_P3E.1_K3.1_C3.1_H3.1_A3.1_[T5G]_[A6C]_F3.1_[T7C]_[A8G]_T3.1 (ssRNA)
RNA: UUUGAUUAAUAUGAUAUCGUUCUUUCUUGUAGCCGUUCUUUCUCGAUAUCAUAUUAAUCUUU
B24: Ic_S2_P3E.1_K3.1_C3.1_H3.1_A3.1_[T5G]_[A6C]_F3.1_[T7A]_[A8G]_T3.1 (ssRNA)
RNA: UUUGAUUAAUAUGAUAUCGUUCUUUCUUGUAGCAGUUCUUUCUCGAUAUCAUAUUAAUCUUU
B25: Ic_S2_P3E.1_K3.1_C3.1_H3.1_A3.1_[T5C]_[A6T]_F3.1_[T7G]_[A8G]_T3.1 (ssRNA)
RNA: UUUGAUUAAUAUGAUAUCGUUCUUUCUUGUACUGGUUCUUUCUCGAUAUCAUAUUAAUCUUU
B26: Ic_S2_P3E.1_K3.1_C3.1_H3.1_A3.1_[T5C]_[A6T]_F3.1_[T7A]_[A8G]_T3.1 (ssRNA)
RNA: UUUGAUUAAUAUGAUAUCGUUCUUUCUUGUACUAGUUCUUUCUCGAUAUCAUAUUAAUCUUU
B27: Ic_S2_P3E.1_K3.1_C3.1_H3.1_A3.1_[T5G]_[A6T]_F3.1_[A8T]_T3.1 (ssRNA)
RNA: UUUGAUUAAUAUGAUAUCGUUCUUUCUUGUAGUUUUUCUUUCUCGAUAUCAUAUUAAUCUUU
B28: Ic_S2_P3E.1_K3.1_C3.1_H3.1_A3.1_[T5C]_[A6T]_F3.1_[T7A]_T3.1 (ssRNA)
RNA: UUUGAUUAAUAUGAUAUCGUUCUUUCUUGUACUAAUUCUUUCUCGAUAUCAUAUUAAUCUUU
B29: Ic_S2_P3E.1_K3.1_C3.1_H3.1_A3.1_[T5G]_[A6T]_F3.1_[T7A]_T3.1 (ssRNA)
RNA: UUUGAUUAAUAUGAUAUCGUUCUUUCUUGUAGUAAUUCUUUCUCGAUAUCAUAUUAAUCUUU
B30: Ic_S2_P3E.1_K3.1_C3.1_H3.1_A3.1_[T5C]_[A6C]_F3.1_[T7A]_[A8C]_T3.1 (ssRNA)
RNA: UUUGAUUAAUAUGAUAUCGUUCUUUCUUGUACCACUUCUUUCUCGAUAUCAUAUUAAUCUUU
B31: Ic_S2_P3E.1_K3.1_C3.1_H3.1_A3.1_[T5G]_[A6C]_F3.1_[A8G]_T3.1 (ssRNA)
RNA: UUUGAUUAAUAUGAUAUCGUUCUUUCUUGUAGCUGUUCUUUCUCGAUAUCAUAUUAAUCUUU
B32: Ic_S2_P3E.1_K3.1_C3.1_H3.1_A3.1_[T5G]_[A6T]_F3.1_[T7A]_[A8T]_T3.1 (ssRNA)
RNA: UUUGAUUAAUAUGAUAUCGUUCUUUCUUGUAGUAUUUCUUUCUCGAUAUCAUAUUAAUCUUU
B33: Ic_S2_P3E.1_K3.1_C3.1_H3.1_A3.1_[T5G]_[A6C]_F3.1_[T7A]_T3.1 (ssRNA)
RNA: UUUGAUUAAUAUGAUAUCGUUCUUUCUUGUAGCAAUUCUUUCUCGAUAUCAUAUUAAUCUUU
B34: Ic_S2_P3E.1_K3.1_C3.1_H3.1_A3.1_[T5C]_[A6T]_F3.1_[T7C]_[A8C]_T3.1 (ssRNA)
RNA: UUUGAUUAAUAUGAUAUCGUUCUUUCUUGUACUCCUUCUUUCUCGAUAUCAUAUUAAUCUUU
B35: Ic_S2_P3E.1_K3.1_C3.1_H3.1_A3.1_[T5C]_[A6T]_F3.1_[A8G]_T3.1 (ssRNA)
RNA: UUUGAUUAAUAUGAUAUCGUUCUUUCUUGUACUUGUUCUUUCUCGAUAUCAUAUUAAUCUUU
B36: Ic_S2_P3E.1_K3.1_C3.1_H3.1_A3.1_[T5C]_[A6T]_F3.1_[A8C]_T3.1 (ssRNA)
RNA: UUUGAUUAAUAUGAUAUCGUUCUUUCUUGUACUUCUUCUUUCUCGAUAUCAUAUUAAUCUUU
B37: Ic_S2_P3E.1_K3.1_C3.1_H3.1_A3.1_[T5G]_[A6C]_F3.1_[A8T]_T3.1 (ssRNA)
RNA: UUUGAUUAAUAUGAUAUCGUUCUUUCUUGUAGCUUUUCUUUCUCGAUAUCAUAUUAAUCUUU
B38: Ic_S2_P3E.1_K3.1_C3.1_H3.1_A3.1_[T5C]_[A6C]_F3.1_[A8T]_T3.1 (ssRNA)
RNA: UUUGAUUAAUAUGAUAUCGUUCUUUCUUGUACCUUUUCUUUCUCGAUAUCAUAUUAAUCUUU
B39: Ic_S2_P3E.1_K3.1_C3.1_H3.1_A3.1_[T5G]_[A6T]_F3.1_[A8C]_T3.1 (ssRNA)
RNA: UUUGAUUAAUAUGAUAUCGUUCUUUCUUGUAGUUCUUCUUUCUCGAUAUCAUAUUAAUCUUU

Biological target: T1, PUF4 RNA-binding domain
Assay: Mg; RNA-MaP; 20 mM Na-HEPES pH 7.4, 30 mM KOAc, 0.75 mM MgCl2, 0.1% Tween-20, 5% glycerol, 0.1 mg/mL BSA, 2 mM DTT; 25 C; 0.0125-409.6 nM protein
Settings: tags: N-His6-TEV cleaved; C-SNAP kept, Cy3B-labelled; label: tethered on chip by stalled RNA polymerase

Row | Binder | Kd [nM]
1 | UCUCUUUCUAAAUAUCUCUU (ssRNA) [Ib_S1_P3E.1_K3.1_C3.1_H3.1_[G2C]_A3.1_[T5A]_F3.1_T3.1] | > 2300
2 | UCUCUUUAUACAUAUCUCUU (ssRNA) [Ib_S1_P3E.1_K3.1_C3.1_H3.1_[G2A]_A3.1_[T5C]_F3.1_T3.1] | 900
3 | UCUCUUUCUAUUUAUCUCUU (ssRNA) [Ib_S1_P3E.1_K3.1_C3.1_H3.1_[G2C]_A3.1_[A6T]_F3.1_T3.1] | > 2300
4 | UCUCUUUUUAUGUAUCUCUU (ssRNA) [Ib_S1_P3E.1_K3.1_C3.1_H3.1_[G2T]_A3.1_[A6G]_F3.1_T3.1] | 354
5 | B1 | 163
6 | B2 | 63.9
7 | B3 | 536
8 | B4 | 47
9 | B5 | 526
10 | B6 | 3.82
11 | B7 | 17.7
12 | B8 | 436
13 | B9 | 181
14 | B10 | 14.5
15 | B11 | 10.7
16 | B12 | 70.3
17 | B13 | 12.6
18 | B14 | 390
19 | B15 | 259
20 | B16 | 381
21 | B17 | 751
22 | B18 | 126

Row | Binder | Kd [nM]
23 | B19 | 55.6
24 | B20 | 3.72
25 | B21 | 30.1
26 | B22 | 105
27 | B23 | 996
28 | B24 | 754
29 | B25 | 1390
30 | B26 | 692
31 | B27 | 23.2
32 | B28 | 33.9
33 | B29 | 650
34 | B30 | 81.3
35 | B31 | 156
36 | B32 | 27.7
37 | B33 | 506
38 | B34 | 126
39 | B35 | 107
40 | B36 | 36.4
41 | B37 | 18.6
42 | B38 | 7.54
43 | B39 | 191
44 | UCUCUUUGUACUGCAUUCUCUU (ssRNA) [Ic_S1_P5E.1_K5.1_C5.1_H5.1_A5.1_[T5C]_[A7G]_F5.1_[T8C]_[T9A]_[A10T]_T5.1] | 534
